The values that follow are results of earlier work, collected in publication PMC4329993.

The target of the data set is GLP-1 receptor (Homo sapiens) (UniProt P43220).
UniProt P43220, sequence (P43220 24-463): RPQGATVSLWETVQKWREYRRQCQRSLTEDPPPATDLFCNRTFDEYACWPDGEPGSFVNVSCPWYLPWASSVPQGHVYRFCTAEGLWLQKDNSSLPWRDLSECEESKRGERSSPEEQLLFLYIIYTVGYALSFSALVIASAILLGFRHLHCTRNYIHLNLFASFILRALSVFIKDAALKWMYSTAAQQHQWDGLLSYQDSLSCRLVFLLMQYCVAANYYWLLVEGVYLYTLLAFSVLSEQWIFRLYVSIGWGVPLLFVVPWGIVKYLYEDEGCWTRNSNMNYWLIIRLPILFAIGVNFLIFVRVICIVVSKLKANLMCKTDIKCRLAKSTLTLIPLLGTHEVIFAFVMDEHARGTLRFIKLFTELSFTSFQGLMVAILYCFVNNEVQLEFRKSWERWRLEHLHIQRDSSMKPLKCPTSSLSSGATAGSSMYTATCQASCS

GLP-1, sequence (P01275 98-127): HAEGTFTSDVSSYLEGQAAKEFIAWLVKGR

On to GLP-1 (from UniProt P01275), for which the Kd was 0.3 nM.
